Experimental data reported in patent US20220033516A1.

Target: recombinant human HER2 S310F ECD protein (human) (UniProt P04626)
Experiment: SPR, Biacore 8K, 37 C, antibody captured by anti-human Fc on CM4, antigen as analyte, 1:1 model

Kd [nM]	Binder
36.2	MHR0009/CD3 (bispecific antibody, human IgG1, kappa, N297A) heavy 1: QSLEESGGRLVTPGTPLTLTCKASGFSLSSYAMIWVRQAPGKGLESIGMVYIHSGGTYYASWAKGRFTISKTSTTVDLKITSPTTEDTATYFCARYNGGGSGTDLWGPGTLVTVSSASTKGPSVFPLAPSSRSTSESTAALGCLVKDYFPEPVTVSWNSGALTSGVHTFPAVLQSSGLYSLSSVVTVPSSSLGTKTYTCNVDHKPSNTKVDKRVEPKSCDKTHTCPPCPAPELRRGPKVFLFPPKPKDTLMISRTPEVTCVVVDVSQEDPEVQFNWYVDGVEVHNAKTKPREEQFASTYRVVSVLTVLHQDWLNGKEYKCKVSNKGLPSSIEKTISKAKGQPREPQVYTLPPSREEMTKNQVSLTCLVKGFYPSDIAVEWESNGQPENNYKTTPPYLDSDGSFFLYSKLTVDKSRWQEGNVFSCSVMHEALHNHYTQESLSLSP light 1: DIVMTQTPSSVSEPVGGTVTIKCQASQSIYSYLSWYQQKPGQRPKLLIYYASTLASGVPSRFKGSGSGTQFTLTISDLECADAATYYCQNNYGSDSNIYGIAFGGGTKVEIKRTVAAPSVFIFPPSDEQLKSGTASVVCLLNNFYPREAKVQWKVDNALQSGNSQESVTEQDSKDCTYSLSSTLTLSKADYEKHKVYACEVTHQGLSSPVTKSFNRGEC heavy 2: QVQLVESGGGVVQPGGSLRLSCAASGFTFSNAWMHWVRQAPGKGLEWVAQIKDKSQNYATYVAESVKGRFTISRADSKNSIYLQMNSLKTEDTAVYYCRYVHYAAGYGVDIWGQGTTVTVSSASTKGPSVFPLAPSSRSTSESTAALGCLVKDYFPEPVTVSWNSGALTSGVHTFPAVLQSSGLYSLSSVVTVPSSSLGTKTYTCNVDHKPSNTKVDKRVEPKSCDKTHTCPPCPAPELRRGPKVFLFPPKPKDTLMISRTPEVTCVVVDVSQEDPEVQFNWYVDGVEVHNAKTKPREEQFASTYRVVSVLTVLHQDWLNGKEYKCKVSNKGLPSSIEKTISKAKGQPREPQVYTLPPSRKEMTKNQVSLTCLVKGFYPSDIAVEWESNGQPENNYKTTPPYLDSDGSFFLYSKLTVDKSRWQEGNVFSCSVMHEALHNHYTQKSLSLSP light 2: DIVMTQSPLSLPVTPGEPASISCRSSQPLVHSNRNTYLHWYQQKPGQAPRLLIYKVSNRFSGVPDRFSGSGSGTDFTLKISRVEAEDVGVYYCGQGTQVPYTFGQGTKLEIKRTVAAPSVFIFPPSDEQLKSGTASVVCLLNNFYPREAKVQWKVDNALQSGNSQESVTEQDSKDSTYSLSSTLTLSKADYEKHKVYACEVTHQGLSSPVTKSFNRGEC
22.3	MHR0016/CD3 (bispecific antibody, human IgG1, kappa, N297A) heavy 1: QSVEESGGRLVTPGTPLTLTCTVSGFSLSSNAISWVRQAPGKGLEYIGIISSSGSTYYANWAKGRFTISKTSSTTVDLKMTSATTEDTATYFCARGVDIYGHAYATPYGMDLWGPGTLVTVSSASTKGPSVFPLAPSSRSTSESTAALGCLVKDYFPEPVTVSWNSGALTSGVHTFPAVLQSSGLYSLSSVVTVPSSSLGTKTYTCNVDHKPSNTKVDKRVEPKSCDKTHTCPPCPAPELRRGPKVFLFPPKPKDTLMISRTPEVTCVVVDVSQEDPEVQFNWYVDGVEVHNAKTKPREEQFASTYRVVSVLTVLHQDWLNGKEYKCKVSNKGLPSSIEKTISKAKGQPREPQVYTLPPSREEMTKNQVSLTCLVKGFYPSDIAVEWESNGQPENNYKTTPPYLDSDGSFFLYSKLTVDKSRWQEGNVFSCSVMHEALHNHYTQESLSLSP light 1: EVVMTQTPASVSEPVGGTVTIKCQASQSISSYLSWYQQKPGQPPKLLIYYSSTLASGVPSRFKGSGSGTEFTLTISDLECADAATYYCQSNYGSSSSSYEDTFGGGTKVEIKRTVAAPSVFIFPPSDEQLKSGTASVVCLLNNFYPREAKVQWKVDNALQSGNSQESVTEQDSKDCTYSLSSTLTLSKADYEKHKVYACEVTHQGLSSPVTKSFNRGEC heavy 2: QVQLVESGGGVVQPGGSLRLSCAASGFTFSNAWMHWVRQAPGKGLEWVAQIKDKSQNYATYVAESVKGRFTISRADSKNSIYLQMNSLKTEDTAVYYCRYVHYAAGYGVDIWGQGTTVTVSSASTKGPSVFPLAPSSRSTSESTAALGCLVKDYFPEPVTVSWNSGALTSGVHTFPAVLQSSGLYSLSSVVTVPSSSLGTKTYTCNVDHKPSNTKVDKRVEPKSCDKTHTCPPCPAPELRRGPKVFLFPPKPKDTLMISRTPEVTCVVVDVSQEDPEVQFNWYVDGVEVHNAKTKPREEQFASTYRVVSVLTVLHQDWLNGKEYKCKVSNKGLPSSIEKTISKAKGQPREPQVYTLPPSRKEMTKNQVSLTCLVKGFYPSDIAVEWESNGQPENNYKTTPPYLDSDGSFFLYSKLTVDKSRWQEGNVFSCSVMHEALHNHYTQKSLSLSP light 2: DIVMTQSPLSLPVTPGEPASISCRSSQPLVHSNRNTYLHWYQQKPGQAPRLLIYKVSNRFSGVPDRFSGSGSGTDFTLKISRVEAEDVGVYYCGQGTQVPYTFGQGTKLEIKRTVAAPSVFIFPPSDEQLKSGTASVVCLLNNFYPREAKVQWKVDNALQSGNSQESVTEQDSKDSTYSLSSTLTLSKADYEKHKVYACEVTHQGLSSPVTKSFNRGEC
10.8	MHR0010/CD3 (bispecific antibody, human IgG1, kappa, N297A) heavy 1: QSVEESGGRLVTPGTPLTLTCTVSGFSLSRYAMSWVRQAPGKGLEWIGIIVSSSGSTYYATWATGRFTISKTSTTVDLKITSPTTEDTATYFCARIRGYDNIGYGYPWFYYFNLWGPGTLVTVSSASTKGPSVFPLAPSSRSTSESTAALGCLVKDYFPEPVTVSWNSGALTSGVHTFPAVLQSSGLYSLSSVVTVPSSSLGTKTYTCNVDHKPSNTKVDKRVEPKSCDKTHTCPPCPAPELRRGPKVFLFPPKPKDTLMISRTPEVTCVVVDVSQEDPEVQFNWYVDGVEVHNAKTKPREEQFASTYRVVSVLTVLHQDWLNGKEYKCKVSNKGLPSSIEKTISKAKGQPREPQVYTLPPSREEMTKNQVSLTCLVKGFYPSDIAVEWESNGQPENNYKTTPPYLDSDGSFFLYSKLTVDKSRWQEGNVFSCSVMHEALHNHYTQESLSLSP light 1: DVVMTQTPASVEAAVGGTVTIKCQASQSISSYLAWYQQKPGQPPKLLIYDASDLASGVPSRFKGSGSGTQFTLTISDLECADAATYYCQSYYYSSSSSYGFAFGGGTKVEIKRTVAAPSVFIFPPSDEQLKSGTASVVCLLNNFYPREAKVQWKVDNALQSGNSQESVTEQDSKDCTYSLSSTLTLSKADYEKHKVYACEVTHQGLSSPVTKSFNRGEC heavy 2: QVQLVESGGGVVQPGGSLRLSCAASGFTFSNAWMHWVRQAPGKGLEWVAQIKDKSQNYATYVAESVKGRFTISRADSKNSIYLQMNSLKTEDTAVYYCRYVHYAAGYGVDIWGQGTTVTVSSASTKGPSVFPLAPSSRSTSESTAALGCLVKDYFPEPVTVSWNSGALTSGVHTFPAVLQSSGLYSLSSVVTVPSSSLGTKTYTCNVDHKPSNTKVDKRVEPKSCDKTHTCPPCPAPELRRGPKVFLFPPKPKDTLMISRTPEVTCVVVDVSQEDPEVQFNWYVDGVEVHNAKTKPREEQFASTYRVVSVLTVLHQDWLNGKEYKCKVSNKGLPSSIEKTISKAKGQPREPQVYTLPPSRKEMTKNQVSLTCLVKGFYPSDIAVEWESNGQPENNYKTTPPYLDSDGSFFLYSKLTVDKSRWQEGNVFSCSVMHEALHNHYTQKSLSLSP light 2: DIVMTQSPLSLPVTPGEPASISCRSSQPLVHSNRNTYLHWYQQKPGQAPRLLIYKVSNRFSGVPDRFSGSGSGTDFTLKISRVEAEDVGVYYCGQGTQVPYTFGQGTKLEIKRTVAAPSVFIFPPSDEQLKSGTASVVCLLNNFYPREAKVQWKVDNALQSGNSQESVTEQDSKDSTYSLSSTLTLSKADYEKHKVYACEVTHQGLSSPVTKSFNRGEC
13.9	MHR0019/CD3 (bispecific antibody, human IgG1, kappa, N297A) heavy 1: QSVEESGGRLVAPGTPLTLTCTVSGIDLSSDAMAWVRQAPGKGLEYIGIISSSGSTYYASWAKGRFTISKTSTTVDLKITSPTTEDTATYFCARGVDIYGHAYATPYGMDLWGPGTLVTVSSASTKGPSVFPLAPSSRSTSESTAALGCLVKDYFPEPVTVSWNSGALTSGVHTFPAVLQSSGLYSLSSVVTVPSSSLGTKTYTCNVDHKPSNTKVDKRVEPKSCDKTHTCPPCPAPELRRGPKVFLFPPKPKDTLMISRTPEVTCVVVDVSQEDPEVQFNWYVDGVEVHNAKTKPREEQFASTYRVVSVLTVLHQDWLNGKEYKCKVSNKGLPSSIEKTISKAKGQPREPQVYTLPPSREEMTKNQVSLTCLVKGFYPSDIAVEWESNGQPENNYKTTPPYLDSDGSFFLYSKLTVDKSRWQEGNVFSCSVMHEALHNHYTQESLSLSP light 1: EVVMTQTPASVSEPVGGTVTIKCQASQSISSYLSWYQQKPGQPPKLLIYYASTLASGVPSRFKGSGSGTEFTLTISDLECDDAATYYCQSNYGSSSSSYEDTFGGGTKVEIKRTVAAPSVFIFPPSDEQLKSGTASVVCLLNNFYPREAKVQWKVDNALQSGNSQESVTEQDSKDCTYSLSSTLTLSKADYEKHKVYACEVTHQGLSSPVTKSFNRGEC heavy 2: QVQLVESGGGVVQPGGSLRLSCAASGFTFSNAWMHWVRQAPGKGLEWVAQIKDKSQNYATYVAESVKGRFTISRADSKNSIYLQMNSLKTEDTAVYYCRYVHYAAGYGVDIWGQGTTVTVSSASTKGPSVFPLAPSSRSTSESTAALGCLVKDYFPEPVTVSWNSGALTSGVHTFPAVLQSSGLYSLSSVVTVPSSSLGTKTYTCNVDHKPSNTKVDKRVEPKSCDKTHTCPPCPAPELRRGPKVFLFPPKPKDTLMISRTPEVTCVVVDVSQEDPEVQFNWYVDGVEVHNAKTKPREEQFASTYRVVSVLTVLHQDWLNGKEYKCKVSNKGLPSSIEKTISKAKGQPREPQVYTLPPSRKEMTKNQVSLTCLVKGFYPSDIAVEWESNGQPENNYKTTPPYLDSDGSFFLYSKLTVDKSRWQEGNVFSCSVMHEALHNHYTQKSLSLSP light 2: DIVMTQSPLSLPVTPGEPASISCRSSQPLVHSNRNTYLHWYQQKPGQAPRLLIYKVSNRFSGVPDRFSGSGSGTDFTLKISRVEAEDVGVYYCGQGTQVPYTFGQGTKLEIKRTVAAPSVFIFPPSDEQLKSGTASVVCLLNNFYPREAKVQWKVDNALQSGNSQESVTEQDSKDSTYSLSSTLTLSKADYEKHKVYACEVTHQGLSSPVTKSFNRGEC
